Assay results as given in patent US20250355001A1 (GTINVENT, published 2025).
Where two headings read alike, the source gives them in different places. Where no end group is shown, it is not given here. The star is where a group is joined. Biotin = O=C1N[C@H]2[C@H](CS[C@H]2CCCCC(=O)*)N1

Key:
[1] = target: T1, full length human tau protein 2N4R (hT40) (human, UniProt P10636 1-758); assay: hT40 ELISA
T1 construct: recombinant; also called T441
Protocol: (§1) A series of binding ELISA was performed using various truncated versions of the tau protein and 13mer peptide libraries spanning the entire hT40 molecule for mapping the epitopes of anti-tau scAbs (Full list of protein antigens used is given in Table 14). In general, ELISA plates were coated with 1 μg/ml hT40 or dGA or dGAE or other truncated versions of the protein and in the case of biotinylated peptides, plates were coated with 5 μg/ml Streptavidin followed by 1 μg/ml biotinylated peptide. The plates were blocked with 2% MPBS and scAb samples added at desired starting concentrations and double diluted across the plate. Binding was detected using anti-Human C Kappa HRP conjugated secondary antibody and the resulting immunoreaction was developed and absorbance values measured as described above.

[2] = target: T1, full length human tau protein 2N4R …; assay: hT40 ELISA; remark: listed apart in the source
Target sequence in this assay (P10636 other isoform, or with tags, fused parts or gaps limits assumed): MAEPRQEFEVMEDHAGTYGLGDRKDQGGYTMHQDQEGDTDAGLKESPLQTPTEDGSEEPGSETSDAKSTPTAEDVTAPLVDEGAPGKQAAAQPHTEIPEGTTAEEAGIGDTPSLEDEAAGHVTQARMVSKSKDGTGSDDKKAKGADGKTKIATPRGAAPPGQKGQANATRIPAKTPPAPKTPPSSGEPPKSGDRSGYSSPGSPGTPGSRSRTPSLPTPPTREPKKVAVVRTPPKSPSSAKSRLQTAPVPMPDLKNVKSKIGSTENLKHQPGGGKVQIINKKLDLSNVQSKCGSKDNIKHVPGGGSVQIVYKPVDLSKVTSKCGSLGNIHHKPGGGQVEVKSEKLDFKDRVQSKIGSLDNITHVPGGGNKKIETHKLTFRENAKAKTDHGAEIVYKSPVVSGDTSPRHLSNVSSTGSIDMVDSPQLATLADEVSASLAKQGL

[3] = target: T1, full length human tau protein 2N4R …; assay: hT40 ELISA; remark: listed apart in the source
[4] = target: T1, full length human tau protein 2N4R …; assay: ELISA
Protocol: as §1

tau fragment 348-441 = tau fragment 348-441 (human, UniProt P10636 665-758); assay: direct ELISA
[5] = target: T1, full length human tau protein 2N4R …; assay: SPR, hT40 immobilised, mAb analyte
Protocol: For anti-tau mAb SPR measurements, htau40 was conjugated to the surface of a CM5 sensor chip using amine coupling as explained previously. Briefly, 2 μg/mL htau40 in 10 mM Sodium acetate buffer (pH 4.0) was passed over the activated chip surface (EDC/NHS) in flow cell 2 for a period for 45 s followed by blocking with 1 M ethanolamine-HCl PH 8.5. Flow cell 1 was set up as reference control and blocked simultaneously. Final immobilisation level of htau40 (Rmax) was approximately 250 RU. […] The mAb was added for a 120 s association period and 600 s dissociation period followed by a regeneration cycle of 30 s injection of glycine buffer pH 1.5 in between each cycle. Binding responses were analysed in Biacore X100 evaluation software and data fitted to a 1:1 binding model to obtain kinetic and affinity characterisation.
Target sequence in this assay (P10636 other isoform, or with tags, fused parts or gaps limits assumed): as above

[6] = target: T2, human tau fragment 296-390 of Line 1 mice (human, UniProt P10636 613-707); assay: Western blot of brain homogenates
T2 construct: also called L1 fragment; 10-kDa tau fragment

mouse tau = target: T3, mouse tau (mouse, UniProt P10637 2-733); assay: Western blot of brain homogenates
T3 construct: endogenous protein of mouse brain or plasma; also called endogenous mouse tau

aggregated dGAE = target: T4, aggregated dGAE (human, UniProt P10636 614-708, limits assumed); assay: capture ELISA, mAb coated at 1 µg/ml, S1G2 scAb detection
T4 construct: dGAE aggregated in vitro with DTT, 700 rpm, 37 C, 24 h; also called dGAE aggregates; dGAE agg

[7] = target: T5, human tau (hT40) with P301S and G335D of Line 66 mice (human, UniProt P10636 1-758); assay: Western blot
T5 construct: transgene product in brain homogenate or plasma; also called L66 human tau

[8] = target: T1, full length human tau protein 2N4R …; assay: SPR, scAb captured, tau analyte
Summary of the method: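 scAb captured on flow cell 2 of an antibody-coated chip, flow cell 1 as reference; tau analyte injected 120 s association, 420 s dissociation, glycine pH 2.0 regeneration, in multi-cycle or single-cycle kinetics format. Responses fitted to a 1:1 binding model for kinetics and affinity.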
Target sequence in this assay (P10636 other isoform, or with tags, fused parts or gaps limits assumed): as above

[9] = target: T6, tau parent peptide 319-331 (TSKCGSLGNIHHK); assay: ELISA on biotinylated peptide over streptavidin
T6 peptide: Biotin-TSKCGSLGNIHHK
Protocol: Briefly, 5 μg/ml streptavidin (Thermo Fisher) was adsorbed to Nunc 96-well MaxiSorp plates and following incubation at 37° C. for 1 h, the plates were washed as normal and blocked with 2% MPBS. N-terminally biotinylated peptides (Prolmmune Ltd) were added to the plates and incubated for 1 h at 37° C. Subsequently, test scAbs at starting concentrations of 100-500 nM was added and double diluted across the plate for each peptide and incubated for 1 h at 37° C. Rest of the ELISA was conducted as described above and the plates were read at absorbance 450 nm. Immunoreactivity of the scAb of interest was quantified as the % of scAb was bound for each peptide at a chosen concentration (FIG. 15-20).

[10] = target: T1, full length human tau protein 2N4R …; assay: SPR, summary table
Protocol: The capture antibody was diluted 1/100 in 10 mM Sodium acetate buffer pH 5.0 and passed over the activated chip surface for a period of at least 420 s. Final ligand immobilisation levels over 12,000 RU were deemed to be satisfactory.
The scAb to be tested was added only to flow cell 2 so that flow cell 1 could act as a control to subtract any interaction with the analyte and the chip surface. […] The multi-cycle protocol was as follows-Three start-up cycles composed of an initial capture, to the desired level, of the scAb to be tested was performed followed by a 30 s injection of glycine buffer pH 2.0 after each cycle to regenerate the chip surface. […] The target was added for a 120 s association period and 420 s dissociation period followed by another regeneration, 30 s injection of glycine buffer pH 2.0 in between each cycle.
The single cycle kinetics protocol was similar and utilised the same level of scAb capture. […] In single cycle kinetics the regeneration step was performed only after the final analyte concentration was added. Binding responses were analysed in Biacore X100 evaluation software and data fitted to a 1:1 binding model to obtain kinetic and affinity characterisation.
Target sequence in this assay (P10636 other isoform, or with tags, fused parts or gaps limits assumed): as above

[11] = target: T1, full length human tau protein 2N4R …; assay: hT40 ELISA; remark: listed apart in the source
Target sequence in this assay (P10636 other isoform, or with tags, fused parts or gaps limits assumed): as above

tau fragment 369-390 = target: T7, tau fragment 369-390 (human); assay: direct ELISA
T7 peptide: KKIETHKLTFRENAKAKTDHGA

tau fragment 369-391 = target: T8, tau fragment 369-391 (human); assay: direct ELISA
T8 peptide: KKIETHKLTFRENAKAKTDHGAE

dGAE (tau 297-391) [12] = target: T9, dGAE (tau 297-391) (human, UniProt P10636 614-708); assay: direct ELISA
T9 construct: monomer; also called dGAE95

tau fragment 275-305 = tau fragment 275-305 (human); assay: direct ELISA
dGA (tau 297-390) = dGA (tau 297-390) (human, UniProt P10636 614-707); assay: ELISA
Protocol: as §1

dGAE (tau 297-391) [13] = target: T9, dGAE (tau 297-391); assay: ELISA
Protocol: as §1

tau fragment 337-368 = tau fragment 337-368 (human); assay: direct ELISA
tau fragment 1-111 = tau fragment 1-111 (human, UniProt P10636 1-111); assay: direct ELISA
Protocol: as §1

tau fragment 1-49 = target: T10, tau fragment 1-49 (human); assay: direct ELISA
T10 construct: also called Tau 1-49
T10 peptide: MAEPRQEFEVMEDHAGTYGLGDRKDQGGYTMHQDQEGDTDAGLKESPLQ
Protocol: as §1

tau fragment 337-368 (human), sequence (peptide, as listed by the source): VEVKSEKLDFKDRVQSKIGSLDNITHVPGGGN
T3 sequence (P10637 other isoform, or with tags, fused parts or gaps limits assumed): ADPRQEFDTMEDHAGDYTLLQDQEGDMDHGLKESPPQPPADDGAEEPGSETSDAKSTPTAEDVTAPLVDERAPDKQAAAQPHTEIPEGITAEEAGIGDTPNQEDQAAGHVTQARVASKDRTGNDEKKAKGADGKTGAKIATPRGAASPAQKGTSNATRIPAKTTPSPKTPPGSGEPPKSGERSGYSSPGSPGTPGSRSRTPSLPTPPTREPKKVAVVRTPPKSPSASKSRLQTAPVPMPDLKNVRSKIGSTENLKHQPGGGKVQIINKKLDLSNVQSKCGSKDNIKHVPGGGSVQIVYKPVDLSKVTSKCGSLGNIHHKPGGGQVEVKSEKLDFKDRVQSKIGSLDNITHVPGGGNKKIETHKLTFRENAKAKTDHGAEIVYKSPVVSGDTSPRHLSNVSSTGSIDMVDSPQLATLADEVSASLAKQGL
tau fragment 275-305 (human), sequence (peptide, as listed by the source): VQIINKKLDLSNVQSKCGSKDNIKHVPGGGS
T5 sequence (P10636 other isoform, or with tags, fused parts or gaps P301S G335D P301S G335D limits assumed): as the sequence (P10636 other isoform, or with tags, fused parts or gaps limits assumed) above, with P301S, G335D counted along it
tau fragment 348-441, sequence (P10636 665-758): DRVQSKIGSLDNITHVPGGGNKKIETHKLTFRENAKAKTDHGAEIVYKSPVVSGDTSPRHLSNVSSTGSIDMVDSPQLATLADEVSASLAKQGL

B1: 412G11 (scFv)
scAb: QVRLQESGPSLVKPSQTLSLTCTVSGFSLTSYALGWVRQAPGRAPEWIGNIWRGGRIEYNPALKSRLSITRDTSKSQVSLSLSSVTTEDTAVYYCSRSGGDWGPGLLVTVSSEGKSSGASGESKVDDQAVLTQPSSVSGSLGQRVSITCSGSSSNVGYGNYVGWYQQVPGSAPKLLIYGATSRASGVPDRFSGSRSENTATLTISSLQAEDEADYYCASYDRSESVVFGSGTRLTVLG
Q: What does the source list for B1?
A: EC50 (read off the curve) [1]: ~2 µg/mL; EC50 (read off the curve) [2]: ~2 µg/mL; EC50 (read off the curve) [3]: ~5 µg/mL

B2: CB2 scAb (scFv, not shown: small tags and cut ends)
scFv: QVQLQESGPSLVKPSQTLSLTCTVSGFSLSTNSVGWVRQAPGKAPEWVAGIDTDGEEGFNPVLKSRLSITRDTSKSQVSLSLSNVTSEDTAVYYCGRSYRTDGLAYGYVQAIDYWGPGLLVTISSEGKSSGASGESKVDDQSVLTQPSSVSGSPGQTVSITCSGSYIGSSGVGWFQQLPGSGLRTIIVASDGRPSGVPDRFSMSKSGNTATLTISSLQAEDEADYFCGSSDRTQYTGLFGSGTRLTVLG
notes: scAb
Q: Which results are given for B2?
A: binding result [4]: binds; binding result (tau fragment 348-441): binds

B3: CB7 mAb (antibody, mouse IgG2a, V domains shown)
VH: QVQLQESGPSLVKPSQTLSLTCTVSGFSLTNYRVGWVRQAPGKALEWVSNIRSGGTTWYNPALKSRLSITADTSKSQVSLSLSSVTTEDTAVYYCARDSSGDLYAYDYWGPGLLVTVSS
VL: QAVLTQPSSVSRSLGQSVSMTCSGSSSNVGYGNYMAWFQQVPGSAPKLLIYGATSRASGVPDRFSGSRSGNTATLTISSLQAEDEADYYCASYDSTSGGVFGSGTRLTVLG
notes: sheep-mouse IgG2a chimeric mAb; also called CB7 antibody
Q: Which Kd [5] does the source give for B3 here?
A: 3.7 nM

Q: What about the koff [5] of the same binder?
A: 0.00945 s⁻¹

Q: And the kon [5]?
A: 2.57e+06 M⁻¹ s⁻¹

Q: Does B3 bind [6]?
A: no binding

Q: Does B3 bind (mouse tau)?
A: no binding

Q: Does B3 bind (aggregated dGAE)?
A: no binding (tested: 800 nM)

Q: Does B3 bind [7]?
A: binds

B4: CE2 scAb (scFv, not shown: small tags and cut ends)
scFv: QVQLQESGPSLVKPSQTLSLTCTVSGFSLTNYPVGWVRQAPGKALEWIGNIENDGSANYASALKSRLSITRDTSKNQVSLSLSSATTEDTAVYYCGREFGGSDGYTYFVDIDYWGPGLLVTVSSEGKSSGASGESKVDDQAVLTQPSSVSKSLGQSVSITCSGSSSNVGYGNYVSWFQQVPGSAPKILIYGATSRASGVPDRFSGSRSGNTATLTITSLQAEDEADYYCASYDGSSSGVFGSGTRLTVLG
notes: scAb
Q: With B4 as the binder, how does the Kd [8] read?
A: 5.03 nM

Q: And the koff [8]?
A: 0.00108 s⁻¹

Q: And the kon [8]?
A: 214000 M⁻¹ s⁻¹

Q: Does B4 bind [9]?
A: binds

Q: What about the Kd [10] of the same binder?
A: 5.03 nM

Q: What about the “EC50 (read off the curve)” value [11] of the same binder?
A: ~0.1 µg/mL

B5: S1F4 scAb (scFv, not shown: small tags and cut ends)
scFv: QVQLQESGPSLVKPSQTLSLTCTVSGFSLSSNSVGWVRQAPGKAPEWVAGIDTDGEEGYNPALNSRLSITRDTSKSQVSLSLSSVTSEDTAVYYCVRSYRADGLAYGYVQAIDYWGPGLLLTISSEGKSSGASGESKVDDQAVVTQPSSVSGSLGQRVSITCSGSFIGISSVGWFQQLPGSGLRTVIVASDGRPSGVPDRFSNSKSGNTATLTISSLQAEDEADYFCGSSDRTQYTGVFGSGTRLTVLG
notes: scAb
Q: Which results are given for B5?
A: EC50 (read off the curve) (tau fragment 369-390): ~2 µg/mL; binding result (tau fragment 369-391): binds; EC50 (read off the curve) [11]: ~0.05 µg/mL; EC50 (read off the curve) (dGAE (tau 297-391) [12]): ~0.3 µg/mL

B6: NS1G7 scAb (scFv, not shown: small tags and cut ends)
scFv: QVQLQESGPSLVKPSQTLSLTCTVSGFSLTSYGVGWVRQAPGKTLEWISSISSGGTTFYNPALKSRLSITRDTSESQVSLSLSSVTTEDTAVYYCTRDVHIYYNDYGAAYGDRDYWGPGLLVTVSSEGKSSGASGESKVDDQAVVTQPPSVSGSPGQRVSITCSGSSSNIGGGNYVSWYQQLPGSGLRTLIYGTTSRASGVPDRFSGSGSGNTATLTISSLQAEDEADYYCASYDTNSGSVFGSGTRLTVLG
notes: scAb
Q: Which results are given for B6?
A: binding result (tau fragment 275-305): binds; binding result (dGA (tau 297-390)): binds; binding result [4]: binds; binding result (dGAE (tau 297-391) [13]): binds; binding result (tau fragment 337-368): binds

B7: 3aG3 scAb (scFv, not shown: small tags and cut ends)
scFv: QVQLQESGPSLVKPSQTLSLTCTVSGFSLSSNGVGWVRQAPGKVPEWVGDISSSGKAYANPALKSRLSITRDTAKTQVFLSLSSVTTEDTAVYYCVRCRDGGVSYGYDIDYWGPGLLVTVSSEGKSSGASGESKVDDQAVLTQPPSVSGSPGQRVSITCSGSSSNIGGGNYLSWFQQVPGSAPKLLIYGATSRASGVPDRFSGSRSGNTATLTISSLQAEDEADYYCASFDTSSGGIFGAGTRLTVLG
notes: scAb
Q: Which results are given for B7?
A: Kd [8]: 6.1 nM; koff [8]: 0.000387 s⁻¹; kon [8]: 62900 M⁻¹ s⁻¹; EC50 (read off the curve) (tau fragment 1-111): ~0.5 µg/mL; EC50 (read off the curve) (tau fragment 1-49): ~1 µg/mL
